± gives the standard error. This sample holds only a part of the variants without activity.
B1: glmS ribozyme (parent)
chain: AUAAAAGCGCCAGAACUACAGAAAUGUAGUUGACGAGGAGGAGGUUUAUCGAAUUUUCGGCGGAUGCCUCCAAA

Legend:
Conditions in all cases: with glucosamine-6-phosphate
[1] = variants of: B1; assay: self-cleavage kobs at 40 uM GlcN6P; higher = faster cleavage; RNA array
In short: (§1)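 The measurements used barcoded ribozyme variants on sequenced MiSeq chips, transcribed in situ by E. coli RNA polymerase and tracked at 37 °C with a hybridised Cy3 probe. Glucosamine-6-phosphate, 40 μM to 10 mM in HEPES/KCl/Mg(OAc)2 buffer, was flowed in while tiles were imaged over ~14 h. Baseline-normalised signals, also normalised to non-cleaving reference variants, gave per-tile medians that were fit to one- or two-exponential decays for kobs. kcat and KM resulted from weighted Michaelis–Menten fits across concentrations.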

[2] = variants of: B1; assay: self-cleavage kobs at 10000 uM GlcN6P; higher = faster cleavage; RNA array
In short: as §1

[3] = variants of: B1; assay: self-cleavage kobs at 640 uM GlcN6P; higher = faster cleavage; RNA array
In short: as §1

[4] = variants of: B1; assay: self-cleavage kobs at 160 uM GlcN6P; higher = faster cleavage; RNA array
In short: as §1

[5] = variants of: B1; assay: self-cleavage kobs at 2500 uM GlcN6P; higher = faster cleavage; RNA array
In short: as §1

Row | Variant | self-cleavage kobs at 40 uM GlcN6P [1] [s⁻¹] | self-cleavage kobs at 10000 uM GlcN6P [2] [s⁻¹] | self-cleavage kobs at 640 uM GlcN6P [3] [s⁻¹] | self-cleavage kobs at 160 uM GlcN6P [4] [s⁻¹] | self-cleavage kobs at 2500 uM GlcN6P [5] [s⁻¹]
1 | AUAAACGCGCCAGAAUUACAGAAAUGUAGUUGACGAGGAGGAGGUUUAUCGAAUUUUCGGCGGAUGCCUUCAAA [A6C C16U C70U] | < 1e-05 | 9.69e-05 ± 1.9e-05 | – | – | –
2 | AUAAAAGCGCCAGAACUACAGAAAUGUAGUUGACGAGGAGCAGGUUUAUCGAAUUUUCGACGGAUGCCUCCAAA [G41C G60A] | < 1e-05 | < 1e-05 | < 1e-05 | – | –
3 | AUAAAAGCGCCAUUACUACAGAAAUGUAGCUGCCGAGGAGGAGGUUUAUCGAAUUUUCGGCGGAUGCCUCAAAA [G13U A14U U30C A33C C71A] | < 1e-05 | < 1e-05 | – | – | –
4 | AUAAAAGCGCCAGAACUACAGAAAUGUAGUGGACGAGGAGGAGGUUUAUCGAAUUUUCGGUGGAUGUCUCCAAA [U31G C61U C67U] | < 1e-05 | – | < 1e-05 | – | –
5 | AUAAAAGCGCCAGAACUACAGAAAUGUAGGUGACGAGGAGGAGGUUUAUCCAAUUUUCGGCGGAUGCCUCCAAA [U30G G51C] | < 1e-05 | – | – | – | –
6 | AUAAAAGAGCCAGAACUACAGAAAUGUACUUGACGAGGAGGAGGUUUAUCGAAUUUUCGGCGGAUGCCUCCAAA [C8A G29C] | < 1e-05 | < 1e-05 | < 1e-05 | < 1e-05 | < 1e-05
7 | AUAAAAGCGCCGGGCCUACAGAAAUGUAGGUGACGAGGAGGAGGUUUAUCGAAUUUUCGGCGGAUGCCUCCAAA [A12G A14G A15C U30G] | 7.29e-05 ± 2e-05 | 0.0042 ± 0.00087 | – | – | –
8 | AUAAAAGCGCGAGAACUACAGAAAUGUAGUUGACGAGGAGGACGUUUAUCGAAUUUUCGGCGGAUGCCUCCAAA [C11G G43C] | < 1e-05 | < 1e-05 | < 1e-05 | < 1e-05 | –
9 | AUAAAACCGCUAGAACUACAGAAAUGUAGUUGACGAGGAGGGGGUUUAUCGAAUUUUCGGCGGUUGCCUCCAAA [G7C C11U A42G A64U] | < 1e-05 | < 1e-05 | – | – | –
10 | AUAAAAGCGCCAGAACUACAGAAAUGUAGUUGCCGAGGAGGAGCCUUAUCGAAUUUUCGGCGGAUGCCUCCAAA [A33C G44C U45C] | < 1e-05 | < 1e-05 | < 1e-05 | – | –
11 | AUAAAAUCGCCAGCACUACAGAAAUGUAGUUGACGAGGAGGAGGUUUAUCGAAUUGUCGGCGGAUGCCUCCAAA [G7U A14C U56G] | < 1e-05 | < 1e-05 | < 1e-05 | < 1e-05 | < 1e-05
12 | AUAAAAGCGACAGAAUUACAGAAAUGUAGUUGACGAGGAGGAGGUUUAUCGAAUUUUCGGCGGAUGCCUCCAAA [C10A C16U] | < 1e-05 | – | < 1e-05 | < 1e-05 | –
13 | AUAAAAGCGCCAGAACUACAGAAAUGUAGUUGACGAGGAUGAGGUUUAUCGAAUUUUCGGCGGAUGCCUCCAAA [G40U] | 0.000216 ± 1.5e-05 | – | 0.00199 ± 0.0002 | 0.00045 ± 1.9e-05 | 0.00539 ± 0.00024
14 | AUAAAAGCGCCAUAACUACAGAAAUGUAGUUGACGAGUAGGAGGUUUAUCGAAUUUUCGGCGGAUGCGUCCAAA [G13U G38U C68G] | 0.00012 ± 4.3e-05 | 7.63e-05 ± 1.8e-05 | 0.000157 ± 4.9e-05 | 0.000111 ± 2.7e-05 | 6.64e-05 ± 2.9e-05
15 | AUAAAAGCGCCAGAACUACAGAAAUGUAGUUGACGAGGAGGAGGUUUAUCGGAUUUUCGGCGGAUCCCUCCAAA [A52G G66C] | < 1e-05 | – | – | – | 4.69e-05 ± 1.5e-05
16 | AUAAAAACGCCAGAACUACAGAAAUGUAGAUGACGAGGAGGAGGUUUAUCGAAUUUUCGGCGGAUGCCUCCAAA [G7A U30A] | < 1e-05 | – | – | < 1e-05 | < 1e-05
17 | AUAAAAGCGCCAGAACUACAGAAAUGUAGUUGACGCGGAGGAGGGUUAUCGAAUUUUCGGCGGAUGCCUCCAAA [A36C U45G] | < 1e-05 | < 1e-05 | < 1e-05 | < 1e-05 | < 1e-05
18 | AUAAAAGCGCCAGAACUACAGAAAUGUAGUUGACUAGGAGGUGGUUUAUCGAAUUUUCGGCGGAUGCCUCCAAA [G35U A42U] | < 1e-05 | – | < 1e-05 | < 1e-05 | < 1e-05
19 | AUAAAAGCGCCAGAACUACAGAAAUGUAGUUGACGAUGAGGUGGUUUAUCGAAUUUUCGGCGGAUGCCUCCAAA [G37U A42U] | < 1e-05 | – | < 1e-05 | < 1e-05 | –
20 | AUAAACGCGCCAGAACUACAGAAAUGUAGUCGACGAGGAGGAGGUUUAUCGAAUUUUCUGCGGAUGCCUCCAAA [A6C U31C G59U] | < 1e-05 | – | – | – | –
21 | AUAAAAGUGCCAGAACUACAGAAAUGUAGUGGACGAGGAGGAGGUUUAUCGAAUUUUCGGCGGAUGCCUCCAAA [C8U U31G] | < 1e-05 | < 1e-05 | < 1e-05 | < 1e-05 | < 1e-05
22 | AUAAAAGCGCCAGAACUACAGAAAUGUACUUGACGAGGAGGAGGUUGAUCGAAUUUUCGGCGGAUGCGUCCAAA [G29C U47G C68G] | 7.83e-05 ± 2.3e-05 | 3.71e-05 ± 1.3e-05 | – | – | –
23 | AUAAAAGUUCCAGAACUACAGAAAUGUAGGUGACGAGGAGGAGGUUUAUCGAAUUUUCGGCGGCUGCCUCCAAA [C8U G9U U30G A64C] | < 1e-05 | < 1e-05 | – | – | –
24 | AUAAAAGCGCCAGAACUACAGAAAUGUAGUUGCCGAGGAGGAGGUUUGUCGAAUUUUCGGCGGAUGCCUCCAAA [A33C A48G] | < 1e-05 | < 1e-05 | < 1e-05 | < 1e-05 | –

— the supplement of paper PMC7125110
